The values below come from publication PMC4232992.

The target of this test is Human myeloma IgG1 carbamylated with 0.1 M KCNO for 3 h, heat-aggregated (human). Put plainly: ELISA.

In turn, “C1q, the first component of the classical complement pathway (complex)” gave a percent decrease in the deposition of C1q against native IgG1 of 60%.
